The source of these data is doi:10.1101/2024.10.10.617623, “Deep mutational scanning identifies variants of Cas1 and Cas2 that increase spacer acquisition in type II-A CRISPR-Cas systems” (bioRxiv, 2024).

Substitutions are numbered along the chain they refer to.

In assay [1] the target is T1, Streptococcus pyogenes type II-A Cas1 R5A (Streptococcus pyogenes, UniProt Q99ZW1 1-289, R5A).
T1 construct: Cas1 of the Streptococcus pyogenes (SF370) type II-A CRISPR-Cas system with R5A; source: E. coli Rosetta 2(DE3) BL21, purified (Ni-NTA, SUMO protease, HiTrap Heparin, Superdex 200)
T1 sequence (looked up): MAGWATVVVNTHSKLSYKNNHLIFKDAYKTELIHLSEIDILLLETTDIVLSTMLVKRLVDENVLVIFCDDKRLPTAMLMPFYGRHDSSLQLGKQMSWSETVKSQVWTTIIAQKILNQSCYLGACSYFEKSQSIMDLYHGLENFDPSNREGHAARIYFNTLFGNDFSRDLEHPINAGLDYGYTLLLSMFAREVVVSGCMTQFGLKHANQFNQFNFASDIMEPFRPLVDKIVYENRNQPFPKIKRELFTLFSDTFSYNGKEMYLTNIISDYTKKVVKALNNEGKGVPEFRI
Description: SEC; analytical SEC on Superdex 200 Increase 10/300 GL in SEC buffer (20 mM HEPES pH 7.5, 500 mM NaCl, 5% v/v glycerol, 5 mM DTT) at 4 °C; Cas1 variant 15.0 uM (2 equiv.) mixed with Cas2 7.5 uM, incubated 1 h at 4 °C before injection; fractions on SDS-PAGE, Coomassie. The settings on record: both partners purified.

In assay [2] the target is T2, Streptococcus pyogenes type II-A Cas1 (wild type) (Streptococcus pyogenes, UniProt Q99ZW1 1-289).
T2 construct: Cas1 of the Streptococcus pyogenes (SF370) type II-A CRISPR-Cas system; I surmise that one is the wild type; also called wt; source: E. coli Rosetta 2(DE3) BL21, purified (Ni-NTA, SUMO protease, HiTrap Heparin, Superdex 200)
T2 sequence (looked up): T1 sequence (looked up) with A5R
The description is as above. The settings on record: both partners purified.

B1: Streptococcus pyogenes type II-A Cas2 (natural protein, UniProt Q99ZW0 1-113, looked up)
chain: MSYRYMRMILMFDMPTDTAEERKAYRKFRKFLLSEGFIMHQFSIYSKLLLNNTANNAMIGRLREHNPNKGNITLLTVTEKQFARMIYLHGERNNCIANSDERLVFLGEAFDES
notes: Cas2 of the Streptococcus pyogenes (SF370) type II-A CRISPR-Cas system; source: E. coli Rosetta 2(DE3) BL21, purified (Ni-NTA, SUMO protease, HiTrap Heparin, Superdex 200)
For B1, the binding result in assay [1] and in assay [2] was “binds” throughout.
